From the supplement of paper PMC10567573

B1: BRF1 (parent)
chain: CTACGSVLEDNIIVSEVQFVESSG
B2: TSN (parent)
chain: FLAAEQDIREEIRKVVQSLEQTAR

Variants of: B1
Assay: protein stability index of a GFP-peptide fusion (GPS, HEK-293T) (PSI 1-6); higher = more stable
Details: c terminus: a fixed tail appended
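Also: lentivirally expressed fusions sorted by FACS into six bins by GFP to DsRed ratio, PSI derived from sequencing read proportions per bin multiplied by bin number.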

| Variant | protein stability index |
| --- | --- |
| I13N | 3.79 |
| I13L | 2.79 |
| I13P | 4.25 |
| I13R | 3.92 |
| I13F | 3.08 |
| I13H | 3.84 |
| I13A | 3.96 |
| I13M | 3.97 |
| I13C | 4.75 |
| I13D | 3.13 |
| I13E | 4.11 |
| I13T | 3.56 |
| I13Q | 4.01 |
| I13K | 3.89 |
| I13S | 4.05 |
| I13G | 3.61 |
| S22Y | 2.38 |
| S22R | 2.18 |
| S22G | 2.97 |
| S22Q | 3.38 |
| S22I | 1.52 |
| S22W | 2.66 |
| S22L | 2.09 |
| S22V | 2.75 |
| S22F | 2.32 |
| S22T | 2.33 |

| Variant | protein stability index |
| --- | --- |
| S22P | 3.39 |
| S22C | 1.88 |
| S22H | 3.06 |
| S22E | 3.83 |
| S22D | 3.7 |
| S22M | 2.44 |
| S22N | 3.07 |
| S22A | 3.73 |
| S22K | 3.81 |
| G24M | 3.13 |
| G24L | 3.01 |
| G24S | 3.08 |
| G24R | 2.64 |
| G24K | 3.25 |
| G24Q | 2.95 |
| G24P | 3.28 |
| G24C | 3.09 |
| G24A | 3.67 |
| G24H | 2.25 |
| G24I | 3.06 |
| G24Y | 2.89 |
| G24E | 3.58 |
| G24N | 3.01 |
| G24V | 2.45 |
| G24W | 2.09 |
| G24D | 3.38 |

| Variant | protein stability index |
| --- | --- |
| G24F | 2.03 |
| S15W | 2.75 |
| S15A | 3.65 |
| S15P | 3.15 |
| S15Y | 2.06 |
| S15M | 1.16 |
| S15Q | 3.11 |
| S15N | 3.79 |
| S15E | 3.74 |
| S15C | 2.82 |
| S15V | 1.91 |
| S15D | 4.08 |
| S15I | 1.36 |
| S15G | 2.92 |
| S15R | 3.67 |
| S15F | 1.04 |
| S15T | 3.02 |
| S15L | 1.69 |
| S15K | 3.19 |
| S15H | 2.71 |
| E16H | 3.22 |
| E16S | 2.38 |
| E16W | 1.9 |
| E16N | 2.9 |
| E16K | 3.42 |
| E16T | 2.2 |

| Variant | protein stability index |
| --- | --- |
| E16L | 3.15 |
| E16V | 2.58 |
| E16P | 3.33 |
| E16Q | 2.9 |
| E16Y | 3.77 |
| E16C | 3.61 |
| E16D | 3.87 |
| E16G | 3.51 |
| E16M | 3.11 |
| E16I | 3.35 |
| E16R | 3.09 |
| E16F | 2.08 |
| E16A | 2.66 |
| D10T | 1.79 |
| D10S | 1.34 |
| D10I | 3.2 |
| D10P | 3.44 |
| D10Q | 2.14 |
| D10A | 2.41 |
| D10W | 1.22 |
| D10G | 1.84 |
| D10L | 3.29 |
| D10R | 3.89 |
| D10M | 2.94 |
| D10N | 2.55 |
| D10E | 3.38 |

| Variant | protein stability index |
| --- | --- |
| D10K | 3.43 |
| D10H | 2.67 |
| D10Y | 2.24 |
| V14Q | 4.25 |
| V14Y | 2.73 |
| V14C | 2.64 |
| V14A | 3.63 |
| V14E | 4.28 |
| V14K | 3.53 |
| V14W | 2.14 |
| V14F | 2.57 |
| V14D | 4.33 |
| V14L | 2.78 |
| V14T | 3.95 |
| V14P | 3.96 |
| V14R | 3.89 |
| V14I | 2.68 |
| V14H | 3.94 |
| V14G | 3.54 |
| V14S | 3.49 |
| V14N | 4.23 |
| E9S | 2.85 |
| E9Y | 2 |
| E9V | 2.26 |
| E9T | 2.55 |
| E9W | 1.83 |

| Variant | protein stability index |
| --- | --- |
| E9R | 3.02 |
| E21P | 3.38 |
| E21N | 3.51 |
| E21D | 3.19 |
| E21Y | 1.77 |
| E21V | 2.82 |
| E21G | 3.58 |
| E21H | 2.88 |
| E21L | 2.7 |
| E21W | 2.05 |
| E21T | 2.34 |
| E21I | 2.28 |
| E21M | 2.4 |
| E21Q | 3.02 |
| E21C | 3.27 |
| E21A | 2.58 |
| E21R | 3.53 |
| E21S | 2.54 |
| E21K | 2.94 |
| E21F | 1.87 |
| V20D | 4.52 |
| V20S | 4.23 |
| V20A | 3.65 |
| V20P | 3.48 |
| V20I | 3.11 |
| V20Y | 2.44 |

| Variant | protein stability index |
| --- | --- |
| V20Q | 3.35 |
| V20M | 2.55 |
| V20N | 2.94 |
| V20E | 3.88 |
| V20L | 3.97 |
| V20T | 3.58 |
| V20G | 3.6 |
| V20R | 3.18 |
| V20K | 3.44 |
| V20H | 3.23 |
| V20C | 2.21 |
| V20F | 3.15 |
| I12P | 3.55 |
| I12A | 3.77 |
| I12S | 3.95 |
| I12W | 2.39 |
| I12K | 4.16 |
| I12M | 3.13 |
| I12T | 3.88 |
| I12F | 2.23 |
| I12N | 4.8 |
| I12V | 2.99 |
| I12R | 4.29 |
| I12H | 3.41 |
| I12G | 3.73 |
| I12Y | 3.15 |

| Variant | protein stability index |
| --- | --- |
| I12L | 3.06 |
| I12E | 4 |
| I12Q | 4.35 |
| I12C | 3.53 |
| I12D | 3.08 |
| S23K | 4.04 |
| S23I | 2.88 |
| S23H | 3.24 |
| S23E | 2.91 |
| S23F | 2.42 |
| S23M | 2.81 |
| S23A | 3.14 |
| S23C | 2.9 |
| S23P | 2.72 |
| S23N | 3.15 |
| S23W | 2.53 |
| S23L | 3.03 |
| S23V | 2.63 |
| S23Y | 2.51 |
| S23Q | 3.55 |
| S23T | 3.17 |
| Q18M | 2.36 |
| Q18P | 3.1 |
| Q18C | 2.52 |
| Q18D | 2.89 |
| Q18H | 1.91 |

| Variant | protein stability index |
| --- | --- |
| Q18K | 3.27 |
| Q18S | 2.44 |
| Q18I | 1.82 |
| Q18E | 3.22 |
| Q18V | 2.01 |
| Q18Y | 1.47 |
| Q18A | 3.26 |
| Q18F | 1.79 |
| Q18N | 2.77 |
| Q18R | 2.42 |
| Q18G | 3.47 |
| Q18W | 1.75 |
| Q18L | 2.4 |
| Q18T | 2.31 |
| F19C | 2.43 |
| F19K | 4.19 |
| F19Q | 3.76 |
| F19Y | 3.49 |
| F19E | 4.27 |
| F19M | 3.63 |
| F19W | 2.88 |
| F19V | 3.11 |
| F19D | 4.53 |
| F19I | 2.87 |
| F19P | 4.2 |
| F19A | 5.26 |

| Variant | protein stability index |
| --- | --- |
| F19G | 4.32 |
| F19L | 3.49 |
| F19S | 4.59 |
| F19T | 3.98 |
| F19R | 4.42 |
| F19H | 4.36 |
| F19N | 4.33 |
| V17C | 3.48 |
| V17K | 4.41 |
| V17L | 2.29 |
| V17P | 3.71 |
| V17H | 4.4 |
| V17G | 4.45 |
| V17R | 3.83 |
| V17M | 2.37 |
| V17W | 2.1 |
| V17D | 3.87 |
| V17T | 4.09 |
| V17Y | 2.87 |
| V17S | 4.35 |
| V17A | 4.27 |
| V17N | 3.56 |
| V17F | 2.56 |
| V17Q | 4.07 |
| V17E | 3.88 |
| V17I | 1.92 |

| Variant | protein stability index |
| --- | --- |
| N11H | 2.12 |
| N11W | 1.01 |
| N11F | 1.89 |
| N11S | 2.42 |
| N11K | 4.01 |
| N11D | 2.84 |
| N11A | 1.54 |
| N11P | 2.91 |
| N11Y | 2.06 |
| N11I | 1.14 |
| N11V | 1.96 |
| N11E | 2.19 |
| N11T | 2.44 |
| N11M | 1.05 |
| N11C | 1.74 |
| N11L | 2.98 |
| N11G | 2.96 |
| N11Q | 2.6 |

Variants of: B2
Assay: as above
Details: c terminus: a fixed tail appended

| Variant | protein stability index |
| --- | --- |
| T22L | 3.07 |
| T22Y | 1.81 |
| E10Y | 1.96 |
| E10T | 2.83 |
| E10N | 2.12 |
| E10Q | 1.85 |
| E11G | 2.68 |
| E11H | 2.58 |
| Q17F | 1.58 |
| Q17A | 2.47 |
| Q17G | 1.92 |
| K14D | 3.41 |
| K14W | 1.77 |
| K14H | 1.98 |
| R13K | 1.89 |
| R13G | 1.94 |
| V16A | 2.3 |
| V16H | 2.26 |
| R9N | 2.28 |

| Variant | protein stability index |
| --- | --- |
| R9T | 2.06 |
| R9P | 3.1 |
| A23H | 2.11 |
| Q21S | 1.9 |
| Q21R | 2.15 |
| Q21K | 1.78 |
| A3W | 1.5 |
| Q6M | 1.86 |
| Q6L | 1.99 |
| Q6R | 2.53 |
| R24C | 1.82 |
| R24T | 2.08 |
| R24M | 2.68 |
| R24I | 3.12 |
| R24S | 2.16 |
| D7C | 2.28 |
| D7G | 2.22 |
| F1C | 1.9 |
| F1Y | 2.04 |

| Variant | protein stability index |
| --- | --- |
| F1W | 1.85 |
| L2P | 2.68 |
| A4Q | 2.09 |
| A4V | 1.93 |
| S18G | 1.7 |
| S18C | 2.28 |
| S18D | 2.31 |
| V15N | 3.76 |
| V15Q | 3.54 |
| V15P | 3 |
| V15M | 2.17 |
| E20Q | 2.35 |
| E20H | 2.55 |
| E20P | 3.47 |
| I8W | 2.65 |
| I8E | 3.64 |
| E5A | 2.69 |
| E5T | 3.32 |
